Measured values reported in patent US8247376B2, “NGAL for reduction and amelioration of ischemic and nephrotoxic injuries” (The Trustees of Columbia University, priority 2004, dated 2012).
Entries after “also recorded” stand apart in the source; their conditions may differ. Structures can show the parent of a compound that is named as a salt. Blank lines part the entries; values can stand above or below the molecule they belong to.

Legend:
[1] = system: mouse model of ATN or ischemia/reperfusion injury; assay: Mouse model of ATN (30 min clamp, contralateral nephrectomy): plasma creatinine; format: in vivo, mice; conditions: for protection against ATN (creatinine, FIG. 17A): mice, 30 minutes of ischemia, 10 μg protein or single dose, 15 min prior to ischemia
Description: Male C57BL/6 mice (20-25 gr; Charles River) were anesthetized with intraperitoneal pentobarbital (50 mg/kg) and placed on a heating pad under a warming light to maintain 37© core body temperature. Kidneys were exposed through an abdominal section and the right kidney was either removed or its vascular pedicle and ureter ligated. The vascular pedicle of the left kidney or both kidneys was clamped by a microaneurysm clip (Kent Scientific) for 30 minutes after right nephrectomy. This period of ischemia generated reproducible renal injury but minimized mortality. During the procedure, PBS (0.5 ml) was used to dampen the peritoneum. The animal was closed with 5-0 Nylon. Saline, NGAL, retinol-loaded retinol binding protein (RBP), enterochelin, or desferroxamine mesylate (DFO) were injected into the peritoneum or subcutaneously 15 min. prior to ischemia or 1-2 hr after reperfusion.
After 6 or 24 hr of reperfusion, heparinized plasma, urine and kidney samples were obtained to measure NGAL (polyclonal 1:500), Heme oxygenase-1 (Stressgen, 1:2000), E-cadherin (BD Transduction Labs, 1:2000), N-cadherin (BD Transduction Labs, 1:3000) and GAPDH (Chemicon International, 1:3000) using immunoblots. Plasma was also used for creatinine and blood urea nitrogen colorimetric assays. Sagittal sections of the kidney were fixed in 4% formalin, or were snap frozen for mRNA and protein analysis. Paraffin-embedded sections (5 μm) were stained with hematoxylin-eosin or by an in situ kit (Fluorescein-TUNEL, Roche) for apoptotic nuclei or for total nuclei (Toprol, Molecular Probes). For cell proliferation analysis, BrdU was injected into the peritoneum 1 hour before sacrifice, and cryostat sections were stained with anti-BrdU (Roche) according to the manufacturer.

[2] = Cofactor-dependent ^55Fe binding to NGAL (10 kDa filter retention); conditions: for inhibition of ^55Fe capture by apo-NGAL+urine: competitor: 1000-fold unlabeled iron citrate or 50-fold iron-saturated enterochelin; for retention of ^55Fe: washed on 10 kDa filter
Description: The urine fraction was obtained by passing fresh urine sequentially through 10 kDa and 3 kDa membranes (YM-10 and YM-3, Amicon). The mixture was then washed three times on 10 kDa membrane (YM-10, Amicon). Iron-free enterochelin-loaded NGAL (rather than NGAL without siderophore) served as a positive control for iron capture. Ferric citrate (1 mM) or iron-loaded enterochelin (Sid:Fe, 50 μM) were used as competitors of ^55Fe binding.

[3] = NGAL trafficking after intraperitoneal or subcutaneous injection; format: in vivo, mice
From the text: (§1) Recombinant human and mouse GST-NGAL were expressed in BL21 or XL1-Blue strains of E. coli (Stratagene) with additional ferric sulfate (50 Micro Molar, Sigma-Aldrich Co.). NGAL was isolated using Glutathione Sepharose 4B beads (Amersham Biosciences), eluted by thrombin cleavage (Sigma-Aldrich Co.; St. Louis, Mo.) and then further purified by gel filtration (Superdex75, SMART system, Amersham Biosciences) and examined by Coomassie gels (Biorad). BL-21 derived NGAL was loaded with iron free or iron saturated enterochelin, a siderophore (EMC Microcollections) using a 5 fold molar excess. Unbound siderophore (0.7 KD) was removed by washing (Microcon YM-10) with PBS. To produce ^55Fe or gallium (Ga) loaded NGAL we incubated the iron-free enterochelin NGAL complex with equimolar ^55Fe (18mCi) or Ga in NaCl (150 mM) Hepes (20 mM; pH 7.4) and the complex was washed 3 times (10K filter). Iodobeads (Pierce) were used to label NGAL with ^125I and unincorporated ^125I was removed by gel filtration (PD-10 column) followed by extensive dialysis (7 kDa cut off membrane, Pierce) against PBS. Alexa-568 and fluorescein isothiocyanate (Molecular Probes) was coupled to NGAL, according to the manufacturer, and then extensively dialyzed. Protein concentration was determined by Coomassie gels in comparison with bovine serum albumin standard.
(§2) To detect delivery of NGAL to the kidney rNGAL (10 or 100 μg), Alexa 568-NGAL (100 μg), ^125I-NGAL ([…], 2×10^6 cpm), or ^55Fe loaded enterochelin-NGAL (10 μg, 1×10^6 cpm) was injected into the peritoneum and blood, urine, kidney and liver samples were obtained. NGAL was detected by immunoblot. Alexa-568 NGAL was detected by confocal microscopy (LSM Meta Detector) and NGAL mediated iron trafficking was detected by scintillation counter and by light microscopic radioautography of Epon embedded kidneys. Slides were exposed to emulsion (Polyscience) for 1 week and then developed with Microdol and counterstained with Toluidine blue. To detect lysosomes in the proximal tubule, mice were injected with Fluorescein Dextran (46 kD; 0.5 mg; Sigma) 24 hours before Alexa 568 NGAL injections. LAMP1 (Santa Cruz) was detected in cryostat sections of 4% paraformaldehyde fixed kidneys.

[4] = Distribution and radioautography of ^55Fe after ^55Fe:Sid:NGAL injection; format: in vivo, mice; conditions: for Silver Grains (% Total): kidney radioautography; for ^55Fe recovered: one hour after 10 μg intraperitoneal
From the text: as §1, §2

Molecule: CC(=O)N(O)CCCCCNC(=O)CCC(=O)N(O)CCCCCNC(=O)CCC(=O)N(O)CCCCCN [DFO, desferrioxamine mesylate, reference compound]
- protection against ATN (creatinine, FIG. 17A) [1]: failed to protect against ATN; also recorded: ineffective

Molecule: Ferric citrate [iron citrate, reference compound]
- inhibition of ^55Fe capture by apo-NGAL+urine [2]: inhibited
- inhibition of ^55Fe capture by apo-NGAL+urine ([2]; listed as iron-citrate): blocked

B1: Alexa-568 NGAL: NGAL coupled to Alexa-568 fluorescent dye (conjugate, UniProt P11672 21-200, looked up)
Neutrophil …: QDSTQNLIPAPSLLTVPLQPDFRSDQFRGRWYVVGLAGNAVQKKTEGSFTMYSTIYELQENNSYNVTSILVRDQDQGCRYWIRTFVPSSRAGQFTLGNMHRYPQVQSYNVQVATTDYNQFAMVFFRKTSENKQYFKITLYGRTKELSPELKERFTRFAKSLGLKDDNIIFSVPTDQCIDN
modifications: Alexa-568 dye
notes: NGAL coupled to Alexa-568 fluorescent dye
- localization of fluorescent NGAL in kidney ([3]; by one hour after injection): localized to large vesicles in the subapical domain of the cortical proximal tubule
- NGAL vesicles also containing dextran (lysosomes) ([3]; one hour after injecting, fluorescein-dextran the day before): 33%

B2: holo-NGAL: NGAL cloned in XL-1Blue bacteria; contains enterochelin and is iron-loaded (protein, UniProt P11672 21-200, looked up)
Neutrophil …: B1 Neutrophil …
modifications: enterochelin, iron-loaded
notes: NGAL cloned in XL-1Blue bacteria; contains enterochelin and is iron-loaded
- protection against ATN (creatinine, FIG. 17A) [1]: rescues renal function
- protection against ATN (creatinine, FIG. 17A) ([1]; listed as holo-Ngal): protected the kidney

- retention of ^55Fe ([2]; in buffer): not
B3: apo-NGAL:Sid:Fe: BL-21-cloned NGAL reconstituted with iron-saturated enterochelin (protein, UniProt P11672 21-200, looked up)
Neutrophil …: B1 Neutrophil …
modifications: iron-saturated enterochelin
notes: BL-21-cloned NGAL reconstituted with iron-saturated enterochelin
- protection against ATN (creatinine, FIG. 17A) [1]: protective effect
- protection against ATN (creatinine, FIG. 17A) ([1]; listed as apo-Ngal:Sid:Fe): enhanced the protection of the kidney and blunted the rise in serum creatinine

B4: [^125I]-NGAL: NGAL labelled with ^125I using Iodobeads (protein, UniProt P11672 21-200, looked up)
Neutrophil …: B1 Neutrophil …
modifications: 125I label
notes: NGAL labelled with ^125I using Iodobeads
- TCA precipitable fraction, kidney-localized protein ([3]; kidney): 70%
- kidney versus liver content per mg protein ([3]; one hour time-point): 13 fold
- TCA precipitable fraction ([3]; plasma): 35%
- TCA precipitable fraction ([3]; urine): 20%

- retention of ^55Fe ([2]; in buffer): failed to trap ^55Fe and not
- retention of ^55Fe ([2]; with mouse urine fraction (<3,000 Da)): retains ^55Fe
B5: apo-NGAL: NGAL cloned in BL-21 bacteria; does not contain enterochelin (siderophore free) (protein, UniProt P80188 21-198, looked up)
Neutrophil …: QDSTSDLIPAPPLSKVPLQQNFQDNQFQGKWYVVGLAGNAILREDKDPQKMYATIYELKEDKSYNVTSVLFRKKKCDYWIRTFVPGCQPGEFTLGNIKSYPGLTSYLVRVVSTNYNQHAMVFFKKVSQNREYFKITLYGRTKELTSELKENFIRFSKSLGLPENHIVFPVPIDQCIDG
modifications: siderophore-free
- protection against ATN (creatinine, FIG. 17A) [1]: minimally active
- protection against ATN (creatinine, FIG. 17A) ([1]; listed as apo-Ngal): reduced level of protection

- retention of ^55Fe ([2]; in buffer): retained
B6: apo-NGAL:Sid: BL-21-cloned NGAL reconstituted with iron-free enterochelin (protein, UniProt P80188 21-198, looked up)
Neutrophil …: B5 Neutrophil …
modifications: complexed with iron-free enterochelin
notes: BL-21-cloned NGAL reconstituted with iron-free enterochelin
- protection against ATN (creatinine, FIG. 17A) [1]: protective effect
- protection against ATN (creatinine, FIG. 17A) ([1]; listed as apo-Ngal:Sid): enhanced the protection of the kidney and blunted the rise in serum creatinine

B7: ^55Fe:Sid:NGAL: iron-free enterochelin-NGAL incubated with ^55Fe at 1:1 stoichiometry (protein, UniProt P80188 21-198, looked up)
Neutrophil …: B5 Neutrophil …
modifications: enterochelin loaded with 55Fe
notes: iron-free enterochelin-NGAL incubated with ^55Fe at 1:1 stoichiometry
- Relative SA (% grains/% point count) ([4]; Apical MB): 2.21
- Relative SA (% grains/% point count) ([4]; Basal MB): 0.59
- Relative SA (% grains/% point count) ([4]; Cytosol): 1
- Relative SA (% grains/% point count) ([4]; Glomerular Tuft): 0.11
- Relative SA (% grains/% point count) ([4]; Interstitium): 0.3
- Relative SA (% grains/% point count) ([4]; Lumen): 1.43
- Relative SA (% grains/% point count) ([4]; Nucleus): 0.56
- Silver Grains (% Total) ([4]; Apical MB): 12.91 % Total
- Silver Grains (% Total) ([4]; Basal MB): 3.81 % Total
- Silver Grains (% Total) ([4]; Cytosol): 48.98 % Total
- Silver Grains (% Total) ([4]; Glomerular Tuft): 0.13 % Total
- Silver Grains (% Total) ([4]; Interstitium): 3.71 % Total
- Silver Grains (% Total) ([4]; Lumen): 26.46 % Total
- Silver Grains (% Total) ([4]; Nucleus): 4.02 % Total
- ^55Fe recovered ([4]; kidney): 55%
- ^55Fe recovered ([4]; liver): 2.4%
- ^55Fe recovered ([4]; plasma): 4.3%
- ^55Fe recovered ([4]; spleen): 0.2%
- ^55Fe recovered ([4]; urine): 0.6%

B8: apo-NGAL:Sid:Ga: gallium-loaded enterochelin-NGAL complex (protein, UniProt P80188 21-198, looked up)
Neutrophil …: B5 Neutrophil …
modifications: enterochelin loaded with gallium
notes: gallium-loaded enterochelin-NGAL complex
- creatinine ([1]; gallium complex 15 minutes prior to ischemia): 3.17±0.1
- protection against ATN (creatinine, FIG. 17A) [1]: ineffective
- protection against ATN (creatinine, FIG. 17A) ([1]; listed as apo-Ngal:Sid:Ga): not protected
